Our source for the stoichiometry N values is article doi:10.1101/2024.09.19.613822.

For this experiment, the target named is His-tagged proaerolysin (Aeromonas hydrophila) (UniProt P09167). Description: SEC.

“His-tagged proaerolysin (from UniProt P09167 24-445) (natural protein)” showed a stoichiometry N of 2.
